According to patent US20220213211A1 (Memorial Sloan Kettering, published 2022):

Biological target: T1, biotinylated recombinant CD371 (soluble CD371) (Homo sapiens (Human), UniProt Q5QGZ9 65-265, biotinylated (site not stated))
T1 sequence: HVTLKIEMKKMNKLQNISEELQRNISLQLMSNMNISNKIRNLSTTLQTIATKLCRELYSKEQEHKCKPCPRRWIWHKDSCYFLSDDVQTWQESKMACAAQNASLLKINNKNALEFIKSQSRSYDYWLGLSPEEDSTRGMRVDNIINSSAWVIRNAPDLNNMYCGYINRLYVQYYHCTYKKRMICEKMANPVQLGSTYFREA
Test: biotinylated CD371 captured with streptavidin, soluble scFv as analyte
Text: For scFv affinity measurements, biotinylated CD371 was captured with streptavidin, and soluble scFv was used as analyte. […] Consistent with the flow cytometry results, weak binding of the 1B10 scFv in the VH-VL orientation was observed but a dissociation constant could not be calculated by any curve fit method.

B1: B10 scFv in the VL-VH orientation (scFv)
scFv: DIVMTQSPDSLAVSLGERATINCKSSQSVLDSYNNENNLAWYQQKPGQPPKLLIYWASTRESGVPDRFSGSGSGTDFTLTISSLQAEDVAVYYCQQYTSEPITFGQGTKVEIKGGGGSGGGGSGGGSGGGGSEVQLLESGGGLVQPGGSLRLSCAASGFTFSDYQMSWVRQAPGKGLEWVSGIQGGGGSTYYADSVKGRFTISRDNSKNTLYLQMNSLRAEDTAVYYCAREMWRGDYYSGMDVWGQGTTVTVSS
notes: also called 1B10 scFv VL-VH; VL-VH scFv
  Kd: 16 nM
  koff: 0.00952 s⁻¹
  kon: 599000 M⁻¹ s⁻¹
